Binding result and EC50 data for one molecule are collected here from patent publication CN114560932A (MILITARY MEDICINE RES INSTITUTE OF CHINESE PEOPLE …, dated 2022).

Usually EC50 stands for the concentration at which the effect is half-maximal.

Assay [1] addresses 鼠疫杆菌V重组蛋白 (Yersinia pestis, UniProt P0C7U7 1-326). The assay can be described thus: ELISA, antigen coated at 2 μg/mL, mhS1 at 20 μg/mL, goat anti-human IgG-HRP.
For assay [2], the target named is 鼠疫菌F1重组蛋白 (Yersinia pestis, UniProt P26948 22-170).
Sequence of 鼠疫菌F1重组蛋白 (P26948 22-170 limits assumed): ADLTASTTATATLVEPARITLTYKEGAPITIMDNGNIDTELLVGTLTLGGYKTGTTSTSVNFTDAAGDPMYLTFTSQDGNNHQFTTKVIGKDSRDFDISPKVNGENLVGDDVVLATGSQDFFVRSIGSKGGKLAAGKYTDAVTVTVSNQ

Sequence of 鼠疫杆菌V重组蛋白 (P0C7U7 whole entry): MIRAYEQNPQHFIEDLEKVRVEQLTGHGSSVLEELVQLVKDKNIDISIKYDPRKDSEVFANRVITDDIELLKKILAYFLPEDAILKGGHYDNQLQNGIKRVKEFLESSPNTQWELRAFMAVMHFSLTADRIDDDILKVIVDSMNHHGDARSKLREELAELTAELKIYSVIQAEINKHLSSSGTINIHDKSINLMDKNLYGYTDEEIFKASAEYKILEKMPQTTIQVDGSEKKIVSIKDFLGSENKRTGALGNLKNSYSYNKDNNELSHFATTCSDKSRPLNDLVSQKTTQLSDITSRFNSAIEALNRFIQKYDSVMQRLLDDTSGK

B1: 人鼠嵌合全抗体mhS1 (antibody, V domains shown)
VH: QVQLKESGAELVKPGASVKLSCTASGFNIKDTYIHWMKQRPEQGLEWIGRIDPANGHSIYDPKFQGKATITADASSNAAYLQLSSLTSEDTAVYYCARSYGYEKRYAMDYWGQGTSVTVSS
VL: DIVMTQTTSSLSASLGDRVTISCSASQGISNYLNWYQQKPDGTVKVLIYYTSTLHSGVPSRFSGSGSGTDYSLTISNLEPEDIATYYCQQYSKLPWTFGGGTKLEMKR
For B1, the binding result in assay [1] was “no binding (tested: 20μg/mL)”. A half-maximal response in assay [2] (EC50) required 0.0114 nM.
